Starred links: 1 amine or outer side, 2 acyl side, 3 side chain; linkers in the order of their positions; H or OH if unused. Positions of bridges follow the written chain, without caps; N, C: chain ends. Non-standard residues stand in square brackets, D forms with d. Primed or numbered codes have the meaning given here. *: point of attachment. PyrS2″ = (S)-3-amino-1-((pent-4-en-1-yloxy)carbonyl)pyrrolidine-3-carboxylic acid (stapling residue), C=CCCCOC(=O)N1CC[C@@](N[*:1])(C(=O)[*:2])C1; PyrS3″ = (S)-3-amino-1-((hex-5-en-1-yloxy)carbonyl)pyrrolidine-3-carboxylic acid (stapling residue), C=CCCCCOC(=O)N1CC[C@@](N[*:1])(C(=O)[*:2])C1; B5(16) = 2-amino-2-(pent-4-en-1-yl)hept-6-enoic acid = 2,2-bis(4-pentenyl)glycine (stitching residue), C=CCCCC(CCCC=C)(N[*:1])C(=O)[*:2]; B5(4) = 2,2-bis(4-pentenyl)glycine = 2-amino-2-(pent-4-en-1-yl)hept-6-enoic acid (stitching residue), C=CCCCC(CCCC=C)(N[*:1])C(=O)[*:2]; TfeGA = (S)-2-amino-3-((carboxymethyl)(2,2,2-trifluoroethyl)amino)propanoic acid, O=C([C@H](CN(CC(=O)[*:3])CC(F)(F)F)N[*:1])[*:2]; PyrS2 = (S)-3-amino-1-((pent-4-en-1-yloxy)carbonyl)pyrrolidine-3-carboxylic acid, C=CCCCOC(=O)N1CC[C@@](N[*:1])(C(=O)[*:2])C1; PyrS3 = (S)-3-amino-1-((hex-5-en-1-yloxy)carbonyl)pyrrolidine-3-carboxylic acid, C=CCCCCOC(=O)N1CC[C@@](N[*:1])(C(=O)[*:2])C1; B5(7) = 2-amino-2-(pent-4-en-1-yl)hept-6-enoic acid, two olefinic side chains, C=CCCCC(CCCC=C)(N[*:1])C(=O)[*:2]; 4MePipBz = 4-((4-methylpiperazin-1-yl)methyl)benzoyl on Lys side chain, CN1CCN(Cc2ccc(C(=O)*)cc2)CC1; 35CF3PhPr = 3-(3,5-bis(trifluoromethyl)phenyl)propanoyl, O=C(CCc1cc(C(F)(F)F)cc(C(F)(F)F)c1)*; B5(3) = 2,2-bis(4-pentenyl)glycine (stitching residue), C=CCCCC(CCCC=C)(N[*:1])C(=O)[*:2]; Me3AdamantC = 3,5,7-trimethyladamantane-1-carbonyl, CC12CC3(C)CC(C)(C1)CC(C(=O)*)(C2)C3; MeMorphBz = 4-(morpholinomethyl)benzoyl on Lys side chain, O=C(c1ccc(CN2CCOCC2)cc1)*; Propanoyl(3-(1-naphthyl)) = O=C(CCc1cccc2ccccc12)*; Phe(2-CF3) = N[C@@H](Cc1ccccc1C(F)(F)F)C(=O)O; Bta = N[C@@H](Cc1csc2ccccc12)C(=O)O; αAllylPro = C=CC[C@@]1(C(=O)O)CCCN1; tBuAla = CC(C)(C)C[C@H](N)C(=O)O; 3Thi = N[C@@H](Cc1ccsc1)C(=O)O; AdamantC = not defined here; PyrS2(4) = not defined here; Octanoyl = CCCCCCCC(=O)*; Butyryl = CCCC(=O)*
T1: B-cat-Halo (beta-catenin HaloTag NanoBRET construct expressed in HEK293 cells) (UniProt P35222 1-781)
T1 sequence (looked up): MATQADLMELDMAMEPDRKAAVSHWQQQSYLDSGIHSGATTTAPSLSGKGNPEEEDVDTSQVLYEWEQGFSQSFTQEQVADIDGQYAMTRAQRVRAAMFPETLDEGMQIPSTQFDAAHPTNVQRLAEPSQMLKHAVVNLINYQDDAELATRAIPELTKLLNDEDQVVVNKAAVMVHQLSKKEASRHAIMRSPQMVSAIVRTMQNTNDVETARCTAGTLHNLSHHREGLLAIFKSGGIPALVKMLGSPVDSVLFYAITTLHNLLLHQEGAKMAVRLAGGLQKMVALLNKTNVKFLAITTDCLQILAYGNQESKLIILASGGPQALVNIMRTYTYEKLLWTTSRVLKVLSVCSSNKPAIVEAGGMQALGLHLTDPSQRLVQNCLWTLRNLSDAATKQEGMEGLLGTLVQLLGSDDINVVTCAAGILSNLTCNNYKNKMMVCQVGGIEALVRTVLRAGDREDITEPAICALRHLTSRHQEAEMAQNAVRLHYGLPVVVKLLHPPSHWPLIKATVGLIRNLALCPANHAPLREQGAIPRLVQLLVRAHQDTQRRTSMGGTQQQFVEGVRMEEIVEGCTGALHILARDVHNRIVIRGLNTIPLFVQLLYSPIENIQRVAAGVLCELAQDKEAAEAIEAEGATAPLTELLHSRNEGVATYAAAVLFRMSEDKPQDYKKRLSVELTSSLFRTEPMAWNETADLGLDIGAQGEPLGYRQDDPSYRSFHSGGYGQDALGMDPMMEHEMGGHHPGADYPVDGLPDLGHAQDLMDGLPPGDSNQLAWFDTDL

T2: B-cat-Halo (beta-catenin HaloTag fusion expressed in HEK293 cells) (Homo sapiens (Human), UniProt P35222 1-781)
T2 sequence: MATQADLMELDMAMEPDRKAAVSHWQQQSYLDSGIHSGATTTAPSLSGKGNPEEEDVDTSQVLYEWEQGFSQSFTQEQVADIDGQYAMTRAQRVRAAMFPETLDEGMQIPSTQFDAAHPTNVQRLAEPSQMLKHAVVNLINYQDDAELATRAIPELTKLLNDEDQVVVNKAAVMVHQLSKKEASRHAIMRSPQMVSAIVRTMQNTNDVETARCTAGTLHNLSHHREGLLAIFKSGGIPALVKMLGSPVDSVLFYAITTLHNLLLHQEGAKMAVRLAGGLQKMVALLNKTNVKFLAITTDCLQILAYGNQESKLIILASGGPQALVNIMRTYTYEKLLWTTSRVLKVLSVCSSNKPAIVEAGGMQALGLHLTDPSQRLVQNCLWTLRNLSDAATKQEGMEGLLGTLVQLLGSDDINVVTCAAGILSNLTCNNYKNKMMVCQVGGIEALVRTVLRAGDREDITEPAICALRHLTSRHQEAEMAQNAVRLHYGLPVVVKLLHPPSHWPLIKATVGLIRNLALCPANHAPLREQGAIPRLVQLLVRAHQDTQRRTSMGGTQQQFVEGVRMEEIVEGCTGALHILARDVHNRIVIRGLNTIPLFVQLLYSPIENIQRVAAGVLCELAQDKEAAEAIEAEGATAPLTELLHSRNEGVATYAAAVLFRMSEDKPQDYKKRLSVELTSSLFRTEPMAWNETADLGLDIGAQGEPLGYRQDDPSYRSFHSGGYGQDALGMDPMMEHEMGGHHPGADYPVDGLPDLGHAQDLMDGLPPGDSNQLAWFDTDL

T3: B-cat-Halo (UniProt P35222 1-781)
T3 sequence (looked up): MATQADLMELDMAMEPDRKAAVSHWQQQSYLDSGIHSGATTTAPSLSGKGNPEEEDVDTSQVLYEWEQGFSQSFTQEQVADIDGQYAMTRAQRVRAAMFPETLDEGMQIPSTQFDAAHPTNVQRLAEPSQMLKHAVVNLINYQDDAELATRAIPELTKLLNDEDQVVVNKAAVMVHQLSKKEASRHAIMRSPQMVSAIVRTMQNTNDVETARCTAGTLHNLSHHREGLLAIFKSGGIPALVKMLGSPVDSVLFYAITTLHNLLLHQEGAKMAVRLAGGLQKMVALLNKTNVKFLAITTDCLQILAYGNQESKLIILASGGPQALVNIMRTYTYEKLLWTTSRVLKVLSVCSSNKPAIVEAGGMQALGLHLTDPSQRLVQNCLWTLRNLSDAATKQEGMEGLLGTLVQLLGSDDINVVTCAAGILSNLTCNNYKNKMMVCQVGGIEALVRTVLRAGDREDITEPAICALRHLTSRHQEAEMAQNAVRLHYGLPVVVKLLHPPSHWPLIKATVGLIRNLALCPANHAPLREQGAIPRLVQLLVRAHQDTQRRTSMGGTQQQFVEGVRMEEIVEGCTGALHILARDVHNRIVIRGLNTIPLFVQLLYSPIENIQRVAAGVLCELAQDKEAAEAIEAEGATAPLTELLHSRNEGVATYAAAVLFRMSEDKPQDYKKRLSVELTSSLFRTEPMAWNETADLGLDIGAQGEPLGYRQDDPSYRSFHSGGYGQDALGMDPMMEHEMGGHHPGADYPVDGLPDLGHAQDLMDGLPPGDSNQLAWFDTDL


Legend:
Assay in all cases: cell-based or functional assay
[1] = biological target: T1, B-cat-Halo (beta-catenin HaloTag …)
[2] = biological target: T2, B-cat-Halo (beta-catenin HaloTag fusion …)
B-cat-Halo = biological target: T3, B-cat-Halo

| Binder | NanoBRET Abs IC50 [1] | further results |
| --- | --- | --- |
| Ac-[αAllylPro]D[tBuAla][B5(3)]DDAK(Me3AdamantC)FN[PyrS2][3Thi][Bta]Q-NH2 (staple 1-4, 4-11) [I-900] | > 20 µM | – |
| Ac-[αAllylPro]D[tBuAla][B5(3)]DDAK(mPEG2)FN[PyrS2][3Thi][Bta]Q-NH2 (staple 1-4, 4-11; not fully specified) [I-892] | > 20 µM | – |
| Ac-[αAllylPro]D[tBuAla][B5(3)]DDAK(AdamantC)FN[PyrS2(4)][3Thi][Bta]Q-NH2 (staple 1-4, 4-11; reading uncertain) [I-899] | > 20 µM | – |
| Ac-[αAllylPro]D[tBuAla][B5(3)]DDAAFN[PyrS3″][3Thi][Bta]N[dA]-NH2 (staple 1-4, 4-11) [I-835] | – | NanoBRET % inh @ 10 uM [2]: 27.6% |
| Ac-[αAllylPro]D[tBuAla][B5(3)]DDAAFN[PyrS2″][3Thi][Bta]QK(MeMorphBz)-NH2 (staple 1-4, 4-11) [I-909] | 28.4 µM | – |
| Ac-[αAllylPro]D[tBuAla][B5(4)]D[TfeGA]AAFL[PyrS2″][3Thi][Bta]N-NH2 (staple 1-4, 4-11; also: -CH=CH- in each staple reduced to -CH2-CH2-) [I-1715] | – | NanoBRET Abs IC50 (B-cat-Halo): 38.4 µM |
| Ac-[αAllylPro]D[tBuAla][B5(3)]DDAAFN[PyrS2″][3Thi][Bta]QK(4MePipBz)-NH2 (staple 1-4, 4-11) [I-908] | 26 µM | – |
| Ac-[αAllylPro]D[tBuAla][B5(3)]DDAK(Butyryl)FN[PyrS2][3Thi][Bta]Q-NH2 (staple 1-4, 4-11) [I-897] | > 20 µM | – |
| Ac-[αAllylPro]D[tBuAla][B5(16)]D[TfeGA]AAFL[PyrS2″][3Thi][Bta]N-NH2 (staple 1-4, 4-11) [I-1705] | – | NanoBRET Abs IC50 (B-cat-Halo): 2.9 µM |
| Ac-[αAllylPro]D[tBuAla][B5(3)]DDAAFN[PyrS2″][3Thi][Bta]QK(Propanoyl(3-(1-naphthyl)))-NH2 (staple 1-4, 4-11) [I-903] | 7.8 µM | – |
| Ac-[αAllylPro]D[tBuAla][B5(4)]D[TfeGA]AAFL[PyrS2″]F[Bta]Q-NH2 (staple 1-4, 4-11; also: -CH=CH- in each staple reduced to -CH2-CH2-) [I-1711] | – | NanoBRET Abs IC50 (B-cat-Halo): 33.3 µM |
| Ac-[αAllylPro]D[tBuAla][B5(4)]D[TfeGA]AAFL[PyrS2″][Phe(2-CF3)][Bta]Q-NH2 (staple 1-4, 4-11; also: -CH=CH- in each staple reduced to -CH2-CH2-) [I-1714] | – | NanoBRET Abs IC50 (B-cat-Halo): 28.6 µM |
| Ac-[αAllylPro]D[tBuAla][B5(3)]DDAAFN[PyrS2][3Thi][Bta]QK(35CF3PhPr)-NH2 (staple 1-4, 4-11) [I-902] | 21.2 µM | – |
| Ac-[αAllylPro]D[tBuAla][B5(3)]DDAK(Octanoyl)FN[PyrS2][3Thi][Bta]Q-NH2 (staple 1-4, 4-11; not fully specified) [I-898] | > 20 µM | – |
| Ac-[αAllylPro]D[tBuAla][B5(7)]DDAAFN[PyrS3][3Thi][Bta]Q[dA]-NH2 (staple 1-4, 4-11) [I-831] | – | NanoBRET % inh @ 10 uM [2]: 32.4% |
| Ac-[αAllylPro]D[tBuAla][B5(3)]DDAK(MeMorphBz)FN[PyrS2″][3Thi][Bta]Q-NH2 (staple 1-4, 4-11) [I-890] | > 20 µM | – |

From patent US20240116985A1 (published 2024)
